The RNAGym collection of RNA variant scans (doi:10.7554/elife.80360)

B1: HDV Ribozyme (parent)
chain: GGCCGGCAUGGUCCCAGCCUCCUCGCUGGCGCCGGCUGGGCAACAUUCCGAGGGGACCGUCCCCUCGGUAAUGGCGAAUGGGACCCA

Variants of: B1
Experiment: self-cleavage, relative activity (ratio to wild type); higher = more cleavage; co-transcriptional

Row | Variant | self-cleavage
1 | GGCCGGCAUGGUCCCAGCCUCCUCGUUGGCGCCGGCUGGGCAACGUUCCGAGGGGACCGUCCCCUCGGUAAUGGCGAAUGGGACCCA [C26U A45G] | 0.831
2 | GGCCGGCAUGGUCCCAGCCUCCUCGGUGGCGCCGGCUGGGCAACAUUCCGAGGGGACCGUCCCCUCGGGAAUGGCGAAUGGGACCCA [C26G U69G] | 0.787
3 | GGCCGGCAUGGUCCCAGCCUCCUCGUUGGCGCCGGCUGGGCAACAUUCCGAGGGGACCGUCCCCUCGGUAAUGGCGAGUGGGACCCA [C26U A78G] | 1.07
4 | GGCCGGCAUGGUCCCAGCCUCCUCGUUGGCGCCGGCUGGGCAACAUUCCGAGGGGACCGUCCCCUCGGUAAUGGCGAUUGGGACCCA [C26U A78U] | 0.743
5 | GGCCGGCAUGGUCCCAGCCUCCUCGUUGGCGCCGGCUGGGCAACAUUCCGAGGGGACCGUCCCCUCGGUAAUGGCGAAUGGGCCCCA [C26U A83C] | 0.95
6 | GGCCGGCAUGGUCCCAGCCUCCUCGGUGGCGCCGGCUGGGCAACAUUCCGAGGGGACCGUCCCCUCGGUAAUGGCGAAUGCGACCCA [C26G G81C] | 0.499
7 | GGCCGGCAUGGUCCCAGCCUCCUCGUUGGCGCCGGCUGGGCAACAUUCCGGGGGGACCGUCCCCUCGGUAAUGGCGAAUGGGACCCA [C26U A51G] | 0.95
8 | GGCCGGCAUGGUCCCAGCCUCCUCGGUGGCGCCGGCAGGGCAACAUUCCGAGGGGACCGUCCCCUCGGUAAUGGCGAAUGGGACCCA [C26G U37A] | 0.213
9 | GGCCGGCAUGGUCCCAGCCUCCUCGGUGGCGCCGGCUGGGCAACAUUCCGAGGGGACCGCCCCCUCGGUAAUGGCGAAUGGGACCCA [C26G U60C] | 1.31
10 | GGCCGGCAUGGUCCCAGCCUCCUCGGUGGCGCCGGCUGGGCAACAUUCCGAGGGGACCGACCCCUCGGUAAUGGCGAAUGGGACCCA [C26G U60A] | 1.05
11 | GGCCGGCAUGGUCCCAGCCUCCUCGUUGGCGCCGGCUGGGCAACAUUCCGAGGGGACCGUCCCCUCGGUCAUGGCGAAUGGGACCCA [C26U A70C] | 1.08
12 | GGCCGGCAUGGUCCCAGCCUCCUCGGUGGCGCCGGCUGGGCAACACUCCGAGGGGACCGUCCCCUCGGUAAUGGCGAAUGGGACCCA [C26G U46C] | 1.15
13 | GGCCGGCAUGGUCCCAGCCUCCUCGGUGGCGCCGGCUGGGCAACAUUCCGAGGGGACCGUCCCCACGGUAAUGGCGAAUGGGACCCA [C26G U65A] | 0.655
14 | GGCCGGCAUGGUCCCAGCCUCCUCGUUGGCGCCGGCUGGGCAGCAUUCCGAGGGGACCGUCCCCUCGGUAAUGGCGAAUGGGACCCA [C26U A43G] | 0.745
15 | GGCCGGCAUGGUCCCAGCCUCCUCGUUGGCGCCGGCUGGGCAUCAUUCCGAGGGGACCGUCCCCUCGGUAAUGGCGAAUGGGACCCA [C26U A43U] | 0.708
16 | GGCCGGCAUGGUCCCAGCCUCCUCGGAGGCGCCGGCUGGGCAACAUUCCGAGGGGACCGUCCCCUCGGUAAUGGCGAAUGGGACCCA [C26G U27A] | 0.516

Row | Variant | self-cleavage
17 | GGCCGGCAUGGUCCCAGCCUCCUCGGGGGCGCCGGCUGGGCAACAUUCCGAGGGGACCGUCCCCUCGGUAAUGGCGAAUGGGACCCA [C26G U27G] | 0.208
18 | GGCCGGCAUGGUCCCAGCCUCCUCGGCGGCGCCGGCUGGGCAACAUUCCGAGGGGACCGUCCCCUCGGUAAUGGCGAAUGGGACCCA [C26G U27C] | 0.795
19 | GGCCGGCAUGGUCCCAGCCUCCUCGGUGGCGCCGGCUGGGCAACAUUCCGAGGGGACCGUCCCCUCGGUAAUGGCGAAGGGGACCCA [C26G U79G] | 0.8
20 | GGCCGGCAUGGUCCCAGCCUCCUCGGUGGCGCCGGCUGGGCAACAUUCCGAGGGGACCGUCCCCUCGGUAAUGGCGAAAGGGACCCA [C26G U79A] | 0.692
21 | GGCCGGCAUGGUCCCAGCCUCCUCGGUGGCGCCGGCUGGGCAACAUUCCGAGGGGACCGUCCCCUCGGUAAUGGCGAACGGGACCCA [C26G U79C] | 0.458
22 | GGCCGGCAUGGUCCCAGCCUCCUCGUUGGCGCCGGCUGGGCAACAUUCCGAGGGGUCCGUCCCCUCGGUAAUGGCGAAUGGGACCCA [C26U A56U] | 1.12
23 | GGCCGGCAUGGUCCCAGCCUCCUCGUUGGCGCCGGCUGGGCAACAUUCCGAGGGGCCCGUCCCCUCGGUAAUGGCGAAUGGGACCCA [C26U A56C] | 1.12
24 | GGCCGGCAUGGUCCCAGCCUCCUCGGUGGCGCCGGCUGGGCAACAUUCCGAGGGGACCGUCCCCUCGGUAACGGCGAAUGGGACCCA [C26G U72C] | 0.862
25 | GGCCGGCAUGGUCCCAGCCUCCUCGUUGGCGCCGGCUGGGCGACAUUCCGAGGGGACCGUCCCCUCGGUAAUGGCGAAUGGGACCCA [C26U A42G] | 0.902
26 | GGCCGGCAUGGUCCCAGCCUCCUCGUUGGCGCCGGCUGGGCAACAUUCCGAGGGGACCGUCCCCUCGGUAGUGGCGAAUGGGACCCA [C26U A71G] | 0.928
27 | GGCCGGCAUGGUCCCAGCCUCCUCGUUGGCGCCGGCUGGGCAACAUUCCGAGGGGACCGUCCCCUCGGUACUGGCGAAUGGGACCCA [C26U A71C] | 0.748
28 | GGCCGGCAUGGUCCCAGCCUCCUCGUUGGCGCCGGCUGGGCAACAUUCCGAGGGGACCGUCCCCUCGGUAUUGGCGAAUGGGACCCA [C26U A71U] | 0.941
29 | GGCCGGCAUGGUCCCAGCCUCCUCGGUGGCGCCGGCUGGGCAACAUACCGAGGGGACCGUCCCCUCGGUAAUGGCGAAUGGGACCCA [C26G U47A] | 0.87
30 | GGCCGGCAUGGUCCCAGCCUCCUCGGUGGCGCCGGCUGGGCAACAUGCCGAGGGGACCGUCCCCUCGGUAAUGGCGAAUGGGACCCA [C26G U47G] | 1.08
31 | GGCCGGCAUGGUCCCAGCCUCCUCGGUGGCGCCGGCUGGGCAACAUCCCGAGGGGACCGUCCCCUCGGUAAUGGCGAAUGGGACCCA [C26G U47C] | 0.95
32 | GGCCGGCAUGGUCCCAGCCUCCUCGGUGGCGCCGGCUGGGCAACAUUCCGAGGGGACCGUCCCCUCGGUAAUGGCGAAUGGCACCCA [C26G G82C] | 0.499
